Reference: patent US11771766B2, “Drug delivery system containing phospholipid and cholesterol” (Taiwan Liposome Co., Ltd, priority 2009, dated 2023)

What was measured:
[1] = Gel filtration (Sepharose 4B) of drug/delivery vehicle mixtures: percentage of non-associated drug; assay type: physicochemical; settings: mixed with DOPC/DOPG/cholesterol vehicle (weight ratio 8.8/1/1.6), 50 mM phosphate buffer pH 6.2
Procedure: DOPC, DOPG, and cholesterol at a weight ratio of 8.8/1/1.6 were dissolved in chloroform, which was then evaporated under vacuum using a rotary evaporator. The dried mixture of the phospholipids and cholesterol thus produced was suspended in deionized water to form an aqueous suspension. The suspension is then homogenized via sonication using a cup horn sonicator (Misonix Sonicator 3000), sterilized by filtration, filled aseptically in a vial, and lyophilized to form a phospholipid-cholesterol-containing delivery vehicle. The phospholipid concentration in the vehicle was determined by a conventional phosphorus assay to ensure that the vehicle contained an appropriate total amount of the phospholipids.
The mixtures thus formed were diluted 18-100-fold in the same phosphate buffer and an aliquot of each mixture ([…]) was subjected to gel-filtration to determine the percentage of the therapeutic agent that was in non-associated form. Briefly, an aliquot of a mixture was loaded onto a Sepharose 4B column (diameter: 1.8 mm; length: 315 mm). The components in the mixture were then eluted by 50 mM phosphate buffer (pH 6.2). Fractions containing the therapeutic agent in different form, i.e., non-associated form or associated with the phospholipids, were collected, their absorbance being measured at 215 nm and 254 nm. The amount of the therapeutic agent in each fraction was determined based on the values of OD215 and OD254.

[2] = Vitreous Avastin concentration after intravitreal injection, by ELISA (Examples 2-5); assay type: in vivo, New Zealand White rabbits; settings: Avastin dose 1.25 mg per eye
Procedure: The effect of the delivery vehicles mentioned above in prolonging the lifetime of Avastin in eyes was examined following the method described in Bakri et al., Ophthalmology, 2007, 114:5, 855-859. Briefly, New Zealand White rabbits were sedated by intramuscular injection of a mixture containing Zoletil (15 mg/ml) and Rompun (7 mg/ml). Both eyes of each rabbit were injected intravitreally with 50 μl of Avastin (25 mg/ml) or one of the aqueous suspensions mentioned above (at an Avastin dose of 1.25 mg per eye) using a 30-gauge needle. Rabbits were sacrificed at 7 days or 21 days after injection and their eyes were promptly enucleated. The vitreous humor was isolated from each eye together with retina and Avastin concentration was determined by ELISA as follows.
A F96 MaxiSorp™ NUNC-IMMUNO plate was coated with VEGF (10 μg/ml in PBS, pH 7.4; 100 μl/well) at 4° C. overnight. The VEGF-coated plate was washed with PBS and then blocked with a blocking buffer (5% skim milk in PBS) at room temperature for 1 hour. […] The absorbance at 450 nm (OD450) of each well was determined by an ELISA reader. Various pre-determined Avastin concentrations (3.125-25 ng/ml) were used to establish a standard Avastin concentration/OD450 curve. The Avastin concentration in each sample was determined based on its OD450 value in view of the standard curve. […]

[3] = Pharmacokinetic properties of vitreous Avastin after intravitreal injection (Example 6); assay type: in vivo, Rabbits
Procedure: Rabbits were injected intravitreally with either Avastin alone (control rabbits) or Avastin mixed with a delivery vehicle containing DOPC/Cholesterol/DOPG at a ratio 67.5/25/7.5 (test rabbits). Vitreous Avastin concentrations of the control rabbits were examined by ELISA at days 7, 21, and 28 post injection and those of the test rabbits were examined at days 7, 21, 28, 35, 41, and 49 post injection.
In a similar study, the vitreous Avastin concentrations were monitored 7, 28, 49, 70, 91 and 112 days post intravitreal injection.

## C[C@@H]1C[C@H]2[C@@H]3CCC4=CC(=O)C=C[C@]4(C)[C@@]3(F)[C@@H](O)C[C@]2(C)[C@@]1(O)C(=O)COP(=O)(O)O [Dexamethasone sodium phosphate, dexamethasone sodium phosphate]
[1]
  Percentage of Non-Associated Drug (% ± S.D.): 68.5 ± 0.5%

## N[C@@H](Cc1c[nH]c2ccccc12)C(=O)O [Tryptophan, tryptophan]
[1]
  Percentage of Non-Associated Drug (% ± S.D.): 86.1 ± 0.8%

## N[C@@H](Cc1ccc(O)cc1)C(=O)O [Tyrosine, tyrosine]
[1]
  Percentage of Non-Associated Drug (% ± S.D.): 80.3 ± 0.1%

## Avastin: an antibody specific to vascular endothelial growth factor
[1]
  Percentage of Non-Associated Drug (% ± S.D.): 62.1 ± 0.9%
[2]; vitreous humor with retina, seven days after intravitreal injection
  Avastin Concentration: 247 ± 27 µg/mL
[2]; vitreous, 21 days after intravitreal injection
  Avastin Concentration: 37 ± 7 µg/mL
[3]; 28 days after intravitreal injection
  vitreous Avastin concentration: 13 µg/mL
[3]; control rabbits, vitreous
  t1/2 (half-life of intravitreal Avastin): 93.6 h
[3]; days 7 to 49 after intravitreal injection
  vitreous concentration of Avastin over time (in words, FIG. 1): decreased much rapidly over time
[3]; vitreous, from the 7th day to infinity
  AUC(7-∞): 3294 µg·days/mL
[3]; vitreous, from the 7th day to the 112th day
  AUC(7-112): 3294 µg·days/mL
[3]; vitreous, from the 112th day to infinity
  AUC(112-∞): 0 µg·days/mL

## HFRRHLC [HFRRHLC (SEQ ID NO: 1) peptide]
[1]
  Percentage of Non-Associated Drug (% ± S.D.): 71.9 ± 0.2%

## HWRGWVC [HWRGWVC (SEQ ID NO: 2) peptide]
[1]
  Percentage of Non-Associated Drug (% ± S.D.): 52.4 ± 0.2%

## bovine serum albumin
[1]
  Percentage of Non-Associated Drug (% ± S.D.): 87.2 ± 0.4%
